Laboratory results as given in patent publication US20250277026A1.

Key:
human Claudin-9 (human) [1] = target: human Claudin-9 (human) (UniProt O95484); experiment: FACS, Claudin-9-HEK293 cells, 5 µg/ml
human Claudin-6 (human) [2] = target: human Claudin-6 (human) (UniProt P56747); experiment: FACS, OV90 cells (endogenous CLDN6)
human Claudin-6 (human) [3] = target: human Claudin-6 (human) (UniProt P56747); experiment: FACS, NEC8 cells (endogenous CLDN6)
human Claudin-6 (human) [4] = target: human Claudin-6 (human) (UniProt P56747); experiment: cell-based or functional assay
human Claudin-3 (human) [5] = target: human Claudin-3 (human) (UniProt O15551); experiment: FACS on MCF7 cells, which endogenously express Claudin-3 and Claudin-4; MFI relative to the isotype control
human Claudin-4 (human) [6] = target: human Claudin-4 (human) (UniProt O14493); experiment: as above
human Claudin-6 (human) [7] = target: human Claudin-6 (human) (UniProt P56747); experiment: FACS dose response, Claudin-6-CHO cells
human Claudin-9 (human) [8] = target: human Claudin-9 (human) (UniProt O95484); experiment: FACS dose response, Claudin-9-HEK293 cells
human Claudin-6 (human) [9] = target: human Claudin-6 (human) (UniProt P56747); experiment: FACS, Claudin-6-CHO-K1 cells
human Claudin-6 (human) [10] = target: human Claudin-6 (human) (UniProt P56747); experiment: FACS dose response, Claudin-6-HEK293 cells
human Claudin-4 (human) [11] = target: human Claudin-4 (human) (UniProt O14493); experiment: FACS, Claudin-4-CHO-K1 cells
human Claudin-3 (human) [12] = target: human Claudin-3 (human) (UniProt O15551); experiment: FACS on Claudin-3-CHO-K1 cells, MFI relative to the isotype control
human Claudin-4 (human) [13] = target: human Claudin-4 (human) (UniProt O14493); experiment: FACS on Claudin-4-CHO-K1 cells, MFI relative to the isotype control

Sequence of human Claudin-4 (human) (O14493 whole entry): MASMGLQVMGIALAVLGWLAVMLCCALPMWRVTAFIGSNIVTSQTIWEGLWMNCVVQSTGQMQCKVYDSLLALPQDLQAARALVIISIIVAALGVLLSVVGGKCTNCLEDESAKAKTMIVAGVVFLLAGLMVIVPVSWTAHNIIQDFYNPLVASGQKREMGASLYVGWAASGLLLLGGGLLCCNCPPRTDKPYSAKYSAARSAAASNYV
Sequence of human Claudin-3 (human) (O15551 whole entry): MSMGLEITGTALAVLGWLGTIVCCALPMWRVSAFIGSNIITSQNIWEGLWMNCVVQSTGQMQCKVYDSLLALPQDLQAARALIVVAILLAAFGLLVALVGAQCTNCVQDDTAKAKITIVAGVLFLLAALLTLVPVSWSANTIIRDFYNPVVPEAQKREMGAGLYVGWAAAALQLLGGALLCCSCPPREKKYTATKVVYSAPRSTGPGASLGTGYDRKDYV
Sequence of human Claudin-6 (human) (P56747 whole entry): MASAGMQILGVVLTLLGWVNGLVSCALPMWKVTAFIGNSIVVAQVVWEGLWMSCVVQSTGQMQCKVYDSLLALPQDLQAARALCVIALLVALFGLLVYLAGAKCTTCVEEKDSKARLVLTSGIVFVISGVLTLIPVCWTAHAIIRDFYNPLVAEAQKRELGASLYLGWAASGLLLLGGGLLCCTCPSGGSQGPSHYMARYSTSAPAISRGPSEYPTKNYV
Sequence of human Claudin-9 (human) (O95484 whole entry): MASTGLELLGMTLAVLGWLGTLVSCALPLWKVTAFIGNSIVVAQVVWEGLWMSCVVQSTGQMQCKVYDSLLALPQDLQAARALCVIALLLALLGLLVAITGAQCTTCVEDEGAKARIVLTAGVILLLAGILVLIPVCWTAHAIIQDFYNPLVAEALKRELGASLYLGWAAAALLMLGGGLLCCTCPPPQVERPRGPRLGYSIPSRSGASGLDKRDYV

Binder | fold MFI over isotype control (human Claudin-9 (human) [1]) [fold] | fold MFI over isotype control (human Claudin-6 (human) [2]) [fold] | fold MFI over isotype control (human Claudin-6 (human) [3]) [fold] | endocytosis-mediated cytotoxicity (anti-hFc Fab-MMAF, CellTiter-Glo) on NEC8 cells, EC50 mean (St. Dev. 0.04) (human Claudin-6 (human) [4]) [nM] | endocytosis-mediated cytotoxicity on OV90 cells, EC50 (human Claudin-6 (human) [4]) [nM] | fold MFI over isotype control (human Claudin-3 (human) [5]) [x] | fold MFI over isotype control (human Claudin-4 (human) [6]) [x] | EC50 (human Claudin-6 (human) [7]) [nM] | EC50 (human Claudin-9 (human) [8]) [nM] | fold MFI over isotype control (human Claudin-6 (human) [9]) [fold] | EC50 (human Claudin-6 (human) [10]) [nM] | fold MFI over isotype control (human Claudin-4 (human) [11]) [fold] | fold MFI over isotype control (human Claudin-3 (human) [12]) [x] | endocytosis-mediated cytotoxicity (anti-hFc Fab-MMAF, CellTiter-Glo) on NEC8 cells, EC50 mean (St. Dev. 0.03) (human Claudin-6 (human) [4]) [nM] | fold MFI over isotype control (human Claudin-4 (human) [13]) [x]
NR.N6.PC2 (antibody, from another filing, V domains shown) VH: QVQLVQSGAEVKKPGASVKVSCKASGYTFTSYWMNWVRQAPGQRLEWMGMIHPSDSEIRLNQKFKDRVTITRDTSASTAYMELSSLRSEDTAVYYCARIDSYYGYLFYFDYWGQGTTVTVSS VL: DIVMTQSPDSLAVSLGERATINCRASQTVSTSSYSYMHWYQQKPGQPPKLLIYFASNVESGVPDRFSGSGSGTDFTLTISSLQAEDVAVYYCQHSWEIPWTFGQGTKLEIKR | 32 | 15 | 20 | 0.14 | 1.71 | 1 | 1 | 24.5 | 7.57 | 25 | 8.73 | 4.5 | 1.6 | – | –
NR.N6.PC1 (antibody, from another filing, V domains shown) VH: EVQLQQSGPELVKPGASMKISCKASGYSFTGYTMNWVKQSHGKNLEWIGLINPYNGGTIYNQKFKGKATLTVDKSSSTAYMELLSLTSEDSAVYYCARDYGFVLDYWGQGTTLTVSS VL: QIVLTQSPSIMSVSPGEKVTITCSASSSVSYMHWFQQKPGTSPKLCIYSTSNLASGVPARFSGRGSGTSYSLTISRVAAEDAATYYCQQRSNYPPWTFGGGTKLEIK | 15 | 20 | 19 | – | 1.96 | 0.7 | 0.7 | 1.52 | 16.4 | 25 | 1.51 | – | 1.1 | 0.05 | 1.2
